Assay results reported in the RNAGym collection of RNA variant scans (doi:10.1073/pnas.2313332121).

B1: TPR t1 (parent)
chain: GACCAAUCUGCCCUCAGAGCUCGAGAACAUCUUCGGAUGCAGAGGAGGCAGGCUUCGGUGGCGCGAUAGCGCCAACGUCCUCAACCUCCAAUGCAUCCCACCACAUGAUGAUGCCUGAAGAGCCUUGGUUUUUUG

Variants of: B1
Experiment: polymerase ribozyme fitness, log enrichment relative to wild type (log ratio); higher = more active; in vitro selection for triplet polymerase activity
How it was run: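 Only genotypes with ≥10 input reads and ≥1 read per output were kept after Illumina sequencing of input and output libraries. These libraries were PCR-built, transcribed mutants of each subunit of a heterodimeric triplet polymerase ribozyme, each put through one triplicate in vitro selection round with frozen incubation at −7 °C, gel excision of extended constructs, streptavidin-bead capture and RT-PCR. Fitness is a logarithmic ratio of genotype enrichment to wild-type enrichment, from inverse-variance-weighted replicate averages, with the logarithm in base 2.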

Row | Variant | polymerase ribozyme fitness (log ratio)
1 | A27C G61U G110A C123G | -3.8
2 | A27G C56A C104U | -2.14
3 | A27C C88G U129C | -4.24
4 | A26U G52U | -4.03
5 | A26U G48C | -3.53
6 | G25U A26G A46U | -3.61
7 | G25C G71A C73A C89A G110A | -6.79
8 | A26C C53U C86U U112A | -5.9
9 | G25C A111U | -6.92
10 | A26U C85U C123A | -3.83
11 | G25U C94U C101U G113A C124A | -7.17
12 | A27G C34G A43C G45U C115A | -7.59
13 | A27G C88U C115U | -4.85
14 | A27G C62A | -2.85
15 | A27G G45A G58A G61A A91G | -5.18
16 | A26G C56G C97U C99A A111G | -6.74
17 | A27C G36A G48U A84U G113C G117U C123G | -8.45
18 | A26C G39C C56A A100G U112C | -7.51
19 | A27G G58A A75G | -2.58
20 | G25A C49U | -6.96
21 | A26U C70U C114U | -7.55
22 | A26C G36A G61A | -5.9
23 | A26U A43G G48U C94G G110A | -6.66
24 | A26U G135U | -4.2

Row | Variant | polymerase ribozyme fitness (log ratio)
25 | A26U A118C C123U | -3.12
26 | A26C G47C U112A | -4.78
27 | A26G G61U | -1.54
28 | A26G G63U | -3.45
29 | A26C G57U | -6.49
30 | A26U G39A G120C C124A G135A | -3.54
31 | A26U G61A U116G A121G | -2.88
32 | G25C G69U G110C | -7.38
33 | G25C C70U C73G A121G U133G | -7.65
34 | A26G C72U | -2.13
35 | A26G A29C | -3.02
36 | A26G A83C A90G A121C | -0.49
37 | A26G C104U G110C C115A | -5.13
38 | A26U A74U C88A G93A C101U | -5.3
39 | A26G C124G | 0.285
40 | A26C G35A G61U C98G C124U | -6.78
41 | A27C A29U C56G | -4.23
42 | A26U G36C G61U U81A U87C G120C | -4
43 | G25C G47U C64G U109A U133C | -6.25
44 | A26U U96A C97A C124U | -5.98
45 | A26U A74G A121G | -1.18
46 | A26U G61U | -3.08
47 | A27C G42U C104A C114A G128A | -7.58
48 | A26C U54G A103C A105U U112C | -6.86

Row | Variant | polymerase ribozyme fitness (log ratio)
49 | G25C C123G | -5.25
50 | A27G G51U G58A U78C A84C | -5.35
51 | A27C U54C C70U | -4.38
52 | A26G A105U | -3.51
53 | A27G C40U | -2.39
54 | A27C C72U C124U | -0.653
55 | A27C G44U C64U | -4.14
56 | A26C C49A C123U | -4.69
57 | A26U C53G G60A C80U | -4.36
58 | A27C G39A A41G | -4.08
59 | G25A U106A | -4.81
60 | A27C G57C | -3.36
61 | A27G A121G | 1.32
62 | A27C C82U U96G U125A U129G | -5.35
63 | A26U A37C C72G G77A C124G | -2.81
64 | A26C G47C C88A C102G A105C C123A | -7.85
65 | A26C A46G G69U A74U | -5.53
66 | A26G G60C C82A | -2.8
67 | A26U C64U C82A G93A | -4.48
68 | A27G C70U | -2.05
69 | A26U A46U G61A | -3.77
70 | A26G C88G C97U C123A | -3.63
71 | A27C G42C G71U G120C U126A U130G | -6.82
72 | A26C C49A C98U C114U | -6.14

Row | Variant | polymerase ribozyme fitness (log ratio)
73 | A26G C72G A100C C115U G128A | -5.88
74 | A27G A43G G63C | -4.38
75 | A27G A29U C73U U125A | -3.73
76 | A26U A46U | -4.63
77 | G25U C104U | -5.92
78 | A27G G61A | -1.92
79 | A26G G47A C72U G93C G113A | -6.9
80 | G25A C56U | -5.12
81 | A26C C72U | -5.89
82 | A26G A46G G63A | -3.44
83 | A26U C102A | -5.29
84 | G25A U54A G61U | -7.38
85 | A27C G71U | -3
86 | A26C C56G | -5.43
87 | A27G A103U U112A U130C | -5.43
88 | A27G G51A G61C | -4
89 | A27C C79U A91C G120A | -4.64
90 | A26U G65A G93C C98U C123U | -6.78
91 | A26G A43U A50U C72A | -5.38
92 | A26U C56G G69U | -2.73
93 | A26U G58U | -4.66
94 | A27G G51U G61A G127C | -6.98
95 | A27G C56U | -1.35
96 | A26U A50U C124G | -2.5

Row | Variant | polymerase ribozyme fitness (log ratio)
97 | G25C G36U U87A A108G G120A G135C | -5.8
98 | A26U G113A | -3.51
99 | A26U G51A U54A G69C G117C | -7.56
100 | A26U C34A C40U G110U | -6.16
101 | A26U A37G | -2.5
102 | A26U A37C | -2.35
103 | A26U U78A G110U G120C U133G | -7.89
104 | A26G A111U | -2.41
105 | G25U A29G G45A C80U G110U | -6.86
106 | G25A U96A | -5.41
107 | A26U G61U C79U G93C G120C | -3.87
108 | A27C C72G U81C | -4.5
109 | A27C U55G | -2.72
110 | A27C G110A | -4.22
111 | A26U G63A | -5.09
112 | A26U G63U | -3.98
113 | A26U C97A A121U | -5.2
114 | A27C G48U | -4.11
115 | A27G C28U G47U G58C | -3.68
116 | A26U A50C U55G | -4.51
117 | A26U U54C C86G A121U | -0.876
118 | G25A G71A U112C | -6.36
119 | A26U G71A C94U C123G U132C | -2.78
120 | A27G A100U | -3.23

Row | Variant | polymerase ribozyme fitness (log ratio)
121 | A27C C62U U92G | -5.85
122 | A26U C88A | -3.45
123 | A26G U32C G60A C64U | -5.28
124 | A26U A46C C56A G120U | -4.53
125 | A27C C62U | -3.48
126 | A27C C62G | -4.48
127 | G25U C31G U55G G71C C115A A119U G122A | -6.9
128 | A26G C82U C124A G127C U133C G135U | -4.09
129 | A27C A68G G71U | -6.32
130 | A27C U55C C70U U129G | -4.99
131 | A27G C98U | -3.4
132 | G25C U32A G42C G45A G51C A111U | -8.24
133 | A26U C64A C115U | -6.23
134 | A27G A43U G47A C98U | -5.67
135 | A26U G71A C72U A90C U106A | -5.08
136 | A27G C34A | -4.06
137 | A27C U112C | -1.2
138 | A26G G57A | -2.54
139 | G25U G44U C56A C70U U109G | -7.02
140 | A27G A83G G93A | -3
141 | A26U C72G | -3.37
142 | A27G A41G C86A | -2.64
143 | A26U A43U G45U G63C C89U G120A | -6.22
144 | G25C C89A | -7.16

Row | Variant | polymerase ribozyme fitness (log ratio)
145 | A27C G77A | -4.66
146 | A27C C56U | -2.85
147 | A26U A41C A46U G61A C101U | -4.43
148 | A26U C49U U54C G93C | -5.34
149 | G25C U32C G45A C49A A68U G69A A121U | -7.08
150 | A26U C88A A119U | -4.48
151 | A26U A46C G63A G120U | -5
152 | A26G A66U A84U G110U G135U | -5.61
153 | A26G A46G G60U | -3.73
154 | G25A G47A A100G U112G C123U | -6.98
155 | A26G G44U U55G C88U | -3.03
156 | A26U C53G C73U A100U | -4.47
157 | A27G C102U A103G U112G | -7.77
158 | A26U U38G A43U C73G C76U A111G | -7.42
159 | A27G A105U | -4.91
160 | A26G C70G G113A | -5.88
161 | G25U C56G | -5.61
162 | A26C C28G G52U C88U G120A | -5.8
163 | A26G A37U G42U C72A G120C | -2.36
164 | A27C G51U C76U C115G C124G U131A G135U | -7.29
165 | A26G G39U G69C C76U A95G G110A | -5.41
166 | A26C G36A G69U G110A | -6.98
167 | A26G C62A C89U | -4.69
